Patent US20200138960A1 (KUNSHAN XINYUNDA BIOTECH, published 2020)
Residue numbers refer to the chain shown, from its start.

B1: C-loop (designed binder)
chain: MSSQIRQNYSTDVEAAVNSLVNLYLQASYTYLSLGFYFDRDDVALEGVSHFFRELAEEKREGYERLLKMQNQRGGRALFQDIKKPDCDEWESGLNAMECALHLEKKLNQALLDLHALGSARTDPHLCDFLETHFLDEEVKLIKKMGDHLTNLRKMGAPEAGLGEYLFERLTLKHD
B2: C terminal (designed binder)
chain: B1 chain with D86A, C87E
B3: NC-loop (designed binder)
chain: MSSQIRQNYHQDSEAAVNRQINLYLQASYTYLSLGFYFDRDDVALEGVSHFFRELAEEKREGYERLLKMQNQRGGRIFLQDIKKPDCDEWESGLNAMECALHLEKKLNQALLDLHKLATDKNDPHLCDFLETHFLDEEVKLIKKMGDHLTNLRKMGAPEAGLGEYLFERLTLKHD
B4: NC fusion (designed binder)
chain: B3 chain with D86A, C87E
B5: N-loop (designed binder)
chain: MSSQIRQNYHQDSEAAVNRQINLYLQASYTYLSLGFYFDRDDVALEGVSHFFRELAEEKREGYERLLKMQNQRGGRIFLQDIKKPDCDEWGKTPDAMKAAMALEKKLNQALLDLHKLATDKNDPHLCDFLETHFLDEEVKLIKKMGDHLTNLHRLGGPEAGLGEYLFERLTLKHD
notes: expressed in E. coli from PET22b; Purity of target protein 77.1%; also called N-loop modified protein
B6: N terminal (designed binder)
chain: B5 chain with D86A, C87E
B7: chimeric human H-ferritin (designed binder)
chain: MTSQVRQNYHQDSEAAINRQINLELYASYVYLSMSYYFDRDDVALEGVSHFFRELAEEKREGYERLLKMQNQRGGRIFLQDIKKPDCDDWESGLNAMECALHLEKNVNQSLLELHKLATDKNDPHLCDFLETHFLDEEVKLIKKMGDHVTNLRKMGAPESGLAEYLFERLTLKHD
notes: FITC-labelled in the cell assays; also called chimeric human H-ferritins

target: T1, TfR1 (human, Sino Biological Inc.) (human, UniProt P02786 89-760); test: ELISA, protein coated at 20 ug/mL, 2 ug/mL TfR1, anti-TfR1 detection
T1 construct: Bought protein; the catalogue number printed for it (11020-MM02) is the same as that printed for the anti-TfR1 primary antibody, so the construct cannot be told; also called TfFR1; receptor TfR1
T1 sequence (P02786 89-760 limits assumed): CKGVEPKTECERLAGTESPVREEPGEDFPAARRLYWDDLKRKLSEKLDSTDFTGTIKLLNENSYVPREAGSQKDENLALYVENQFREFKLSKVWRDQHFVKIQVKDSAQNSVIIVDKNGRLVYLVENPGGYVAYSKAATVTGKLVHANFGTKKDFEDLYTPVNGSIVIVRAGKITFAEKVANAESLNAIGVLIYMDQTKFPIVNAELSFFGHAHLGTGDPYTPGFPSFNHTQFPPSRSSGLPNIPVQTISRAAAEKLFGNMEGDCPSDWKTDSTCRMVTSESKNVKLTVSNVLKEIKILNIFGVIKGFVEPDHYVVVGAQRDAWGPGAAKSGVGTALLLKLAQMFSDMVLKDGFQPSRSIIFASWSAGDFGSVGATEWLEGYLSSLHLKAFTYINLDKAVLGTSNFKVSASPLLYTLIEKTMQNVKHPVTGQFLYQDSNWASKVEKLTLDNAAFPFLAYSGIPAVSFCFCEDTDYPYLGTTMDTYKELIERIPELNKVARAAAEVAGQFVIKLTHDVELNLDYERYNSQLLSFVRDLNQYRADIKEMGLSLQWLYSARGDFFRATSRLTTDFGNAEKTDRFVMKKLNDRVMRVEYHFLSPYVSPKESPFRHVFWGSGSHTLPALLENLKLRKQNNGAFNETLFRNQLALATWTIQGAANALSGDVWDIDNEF

ELISA value | Binder
0.31 OD630 | B1
0.1 OD630 | B2
1.23 OD630 | B3
1.03 OD630 | B4
1.17 OD630 | B5
0.88 OD630 | B6

target: T1, TfR1 (human, Sino Biological Inc.); test: ELISA value converted by purity of target protein

Converted ELISA value | Binder
0.71 | B1
0.17 | B2
2.02 | B3
1.14 | B4
1.52 | B5
1.3 | B6

target: T2, human Transferrin Receptor 1 (TfR1) on cells (human, UniProt P02786 1-760); test: flow cytometry on hCMEC/D3 cells according to Example 1b
T2 construct: whole, on cells; Endogenous receptor on human cell lines; also called receptor TfR1 on hCMEC/D3 cells; TfR1 on U87-MG cells
T2 sequence (P02786 whole entry): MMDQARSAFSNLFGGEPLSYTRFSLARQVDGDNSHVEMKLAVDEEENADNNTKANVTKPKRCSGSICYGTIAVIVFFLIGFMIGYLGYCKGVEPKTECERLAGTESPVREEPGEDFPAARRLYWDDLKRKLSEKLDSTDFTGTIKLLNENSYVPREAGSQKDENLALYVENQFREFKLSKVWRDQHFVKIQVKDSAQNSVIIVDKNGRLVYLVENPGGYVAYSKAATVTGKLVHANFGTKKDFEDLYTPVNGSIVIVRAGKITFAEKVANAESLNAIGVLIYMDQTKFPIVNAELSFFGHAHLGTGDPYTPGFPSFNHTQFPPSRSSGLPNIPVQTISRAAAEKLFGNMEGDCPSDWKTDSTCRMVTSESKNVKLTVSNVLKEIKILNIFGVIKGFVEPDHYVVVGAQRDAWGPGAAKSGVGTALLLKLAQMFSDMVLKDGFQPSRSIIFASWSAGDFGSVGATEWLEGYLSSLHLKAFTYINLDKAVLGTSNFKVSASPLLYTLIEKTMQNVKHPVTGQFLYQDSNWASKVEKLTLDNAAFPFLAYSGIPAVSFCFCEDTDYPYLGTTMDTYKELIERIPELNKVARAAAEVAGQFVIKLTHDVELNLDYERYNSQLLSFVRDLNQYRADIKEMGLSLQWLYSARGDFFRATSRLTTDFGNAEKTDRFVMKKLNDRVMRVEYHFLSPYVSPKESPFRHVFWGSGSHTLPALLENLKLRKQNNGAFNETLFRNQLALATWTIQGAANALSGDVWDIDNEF

binding result | Binder
binds | B7
